The values below come from US20140072553A1 (MORPHOTEK, published 2014).

The test concerns the target tetanus toxoid (UniProt P04958 2-1315). Put plainly: hybridoma screening ELISA.

Chain of tetanus toxoid (P04958 2-457 limits assumed, chain 1 of 2): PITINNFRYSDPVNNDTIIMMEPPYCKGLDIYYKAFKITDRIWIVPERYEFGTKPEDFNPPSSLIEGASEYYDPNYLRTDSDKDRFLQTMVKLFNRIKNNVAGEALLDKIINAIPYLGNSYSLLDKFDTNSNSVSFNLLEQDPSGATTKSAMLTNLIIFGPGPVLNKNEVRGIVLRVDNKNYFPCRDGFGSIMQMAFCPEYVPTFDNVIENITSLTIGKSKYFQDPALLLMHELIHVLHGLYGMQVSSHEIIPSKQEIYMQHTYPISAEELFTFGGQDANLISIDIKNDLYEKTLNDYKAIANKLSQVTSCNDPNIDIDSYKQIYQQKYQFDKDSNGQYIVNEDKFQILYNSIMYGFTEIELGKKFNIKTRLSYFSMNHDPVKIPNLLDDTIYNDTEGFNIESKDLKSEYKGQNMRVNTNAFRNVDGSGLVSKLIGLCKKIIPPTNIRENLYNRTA
Chain of tetanus toxoid (P04958 458-1315 limits assumed, chain 2 of 2): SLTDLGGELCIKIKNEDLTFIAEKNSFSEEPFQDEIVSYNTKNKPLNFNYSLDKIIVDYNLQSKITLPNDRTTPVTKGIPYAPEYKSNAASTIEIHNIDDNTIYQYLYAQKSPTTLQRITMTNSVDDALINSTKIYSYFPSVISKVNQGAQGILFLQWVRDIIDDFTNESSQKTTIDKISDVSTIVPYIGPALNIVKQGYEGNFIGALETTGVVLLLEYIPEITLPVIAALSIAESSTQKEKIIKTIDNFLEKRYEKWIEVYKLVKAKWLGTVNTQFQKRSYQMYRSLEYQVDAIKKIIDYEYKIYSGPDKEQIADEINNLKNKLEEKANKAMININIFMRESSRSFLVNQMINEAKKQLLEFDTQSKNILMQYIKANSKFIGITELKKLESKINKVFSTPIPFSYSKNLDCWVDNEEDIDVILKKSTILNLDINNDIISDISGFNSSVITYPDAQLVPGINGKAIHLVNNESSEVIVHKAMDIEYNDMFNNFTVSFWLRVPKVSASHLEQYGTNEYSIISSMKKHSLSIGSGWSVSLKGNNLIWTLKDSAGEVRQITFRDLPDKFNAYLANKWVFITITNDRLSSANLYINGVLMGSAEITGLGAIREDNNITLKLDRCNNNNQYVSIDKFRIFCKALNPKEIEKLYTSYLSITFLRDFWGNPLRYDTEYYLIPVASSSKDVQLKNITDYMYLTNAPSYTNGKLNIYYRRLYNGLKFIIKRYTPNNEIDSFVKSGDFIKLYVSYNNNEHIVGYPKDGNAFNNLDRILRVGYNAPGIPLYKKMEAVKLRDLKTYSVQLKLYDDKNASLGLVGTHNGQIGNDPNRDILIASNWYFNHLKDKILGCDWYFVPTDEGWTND

B1: human anti-SEB monoclonal antibody F10 (antibody, V domains shown)
VH: QVQLVQSGGGLVKPGGSLRLSCAASGFTFSSYSMNWVRQAPGKGLEWVSSISSSSSYIYYADSVKGRFTISRDNAKNSLYLQMNSLRAEDTAVYYCARGGVAGRTEIYYYYYGMDVWGQGTTVTVSS
VL: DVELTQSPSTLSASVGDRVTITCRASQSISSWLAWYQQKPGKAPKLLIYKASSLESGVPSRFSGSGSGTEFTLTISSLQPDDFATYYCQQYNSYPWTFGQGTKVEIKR
Consider B1, for which the binding result is reported as “no binding”.

B2: human anti-SEB monoclonal antibody 100C9 (antibody, V domains shown)
VH: EVQLVESGGGLVQPGGSLRLSCSASGFTFSSYWMSWVRQAPGKGLEWVANIIQDGSEKYYADSVKGRLTISRDNAKNSLYLQMNSLRVDDTAVYYCARGYEGCSATRCYLYYFDYWGPGTLVTVSS
VL: SYVLTQPPSVSVSPGQTARITCSGDALPKQYTYWYQQKPGQAPVVVIYKDSERPSGIPERFSGSSSGTTVTVTISGVQAEDEADYYCQSADSSGTSLVFGGGTKLTVLG
For the molecule B2, the binding result was “no binding”.

B3: human anti-SEB monoclonal antibody 79G9 (antibody, V domains shown)
VH: EVQLEESGAGLLKPSETLSLTCAVYGGSFSGYYWSWIRQAPGKGLEWIGEIDHSGTTNYNPSLKSRVTISVETSKNQFSLRLSSVTAADSAVYYCASSGYCSHGLCPQEDWGQGTLVTVSS
VL: DIELTQSPSFLSASVGDRVAITCRASQGISNYLAWYQQKPGKAPKLLIYAAFVLQSGVPSRFSGSGSGTEFTLTISNLQPEDFATYYCQQLNSYPRAFGPGTKVDIKR
Regarding B3, the binding result is reported as “no binding”.
